The text below walks through data of article doi:10.1101/2024.07.03.601791 (bioRxiv, 2024).

Assay [1] addresses T1, mCherry fusion LC-domain of FUS (residue 2–214, mCh:FUS-LC) (UniProt P35637 2-214).
T1 sequence (looked up): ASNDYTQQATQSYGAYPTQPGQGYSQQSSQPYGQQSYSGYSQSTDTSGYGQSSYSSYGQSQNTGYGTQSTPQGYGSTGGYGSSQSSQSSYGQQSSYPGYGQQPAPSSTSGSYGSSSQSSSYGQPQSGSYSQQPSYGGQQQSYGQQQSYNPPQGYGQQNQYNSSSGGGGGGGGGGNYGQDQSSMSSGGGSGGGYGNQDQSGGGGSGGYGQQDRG
The assay is described as follows: hydrogel binding assay.

Assay [2] deals with T2, Karyopherinβ2 (Kapβ2) (human, UniProt Q92973-2 1-890).
T2 sequence (looked up): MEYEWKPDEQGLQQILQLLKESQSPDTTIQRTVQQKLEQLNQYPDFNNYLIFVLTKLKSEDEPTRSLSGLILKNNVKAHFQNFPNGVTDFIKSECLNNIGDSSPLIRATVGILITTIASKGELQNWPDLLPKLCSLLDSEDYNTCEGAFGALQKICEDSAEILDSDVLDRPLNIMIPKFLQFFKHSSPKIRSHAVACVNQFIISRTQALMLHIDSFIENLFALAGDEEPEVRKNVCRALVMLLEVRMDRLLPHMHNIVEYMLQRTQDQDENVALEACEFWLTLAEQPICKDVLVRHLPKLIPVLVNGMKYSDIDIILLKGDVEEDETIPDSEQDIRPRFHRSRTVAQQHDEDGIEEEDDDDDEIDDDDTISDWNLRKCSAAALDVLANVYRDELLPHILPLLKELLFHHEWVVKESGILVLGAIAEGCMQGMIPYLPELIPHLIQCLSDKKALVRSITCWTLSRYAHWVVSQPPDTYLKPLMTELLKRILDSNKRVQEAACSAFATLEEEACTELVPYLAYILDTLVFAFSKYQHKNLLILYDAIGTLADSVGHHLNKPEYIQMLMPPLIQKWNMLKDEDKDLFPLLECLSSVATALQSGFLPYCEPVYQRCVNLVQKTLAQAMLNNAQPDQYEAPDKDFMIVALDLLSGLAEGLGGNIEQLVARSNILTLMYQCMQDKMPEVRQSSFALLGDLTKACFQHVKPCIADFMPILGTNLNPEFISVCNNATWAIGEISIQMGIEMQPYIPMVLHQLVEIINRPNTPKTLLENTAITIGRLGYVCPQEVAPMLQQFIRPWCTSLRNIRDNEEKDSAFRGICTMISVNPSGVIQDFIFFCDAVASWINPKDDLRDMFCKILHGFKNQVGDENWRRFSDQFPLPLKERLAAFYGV
The assay is described as follows: hydrogel binding assay.

Assay [3] concerns the target T2, Karyopherinβ2 (Kapβ2). The assay is described as follows: chemical tongue.
A further assay addresses GTP-bound Ran (Q69L) (UniProt P62826 1-216, Q69L). Nature of the assay: pull-down.
Assay [4] concerns the target T2, Karyopherinβ2 (Kapβ2). The assay is described as follows: SEC.
Assay [5] has as its target T2, Karyopherinβ2 (Kapβ2). The assay is described as follows: AUC.

For orientation: stoichiometry N means a count of units in the complex or per binding partner.

“And” between values parts separate entries of the source, which are not always exact repeats. Equal values may be shown once.

B1: GFP fusion 20 repeats of PR (GFP:PR20) (peptide)
chain: PRPRPRPRPRPRPRPRPRPRPRPRPRPRPRPRPRPRPRPR
Regarding B1, the binding result (in assay [1]; in the assay with Karyopherinβ2 (Kapβ2) [2]) was “binds” each time.

B2: PR20 (peptide)
peptide: PRPRPRPRPRPRPRPRPRPRPRPRPRPRPRPRPRPRPRPR
With B2, in the assay with Karyopherinβ2 (Kapβ2) [3], the binding result is recorded as “binds”.

B3: GR20 (peptide)
peptide: GRGRGRGRGRGRGRGRGRGRGRGRGRGRGRGRGRGRGRGR
As for B3, the binding result with Karyopherinβ2 (Kapβ2) [3] was “binds”.

B4: GST-Kapβ2 (natural protein)
chain: MEYEWKPDEQGLQQILQLLKESQSPDTTIQRTVQQKLEQLNQYPDFNNYLIFVLTKLKSEDEPTRSLSGLILKNNVKAHFQNFPNGVTDFIKSECLNNIGDSSPLIRATVGILITTIASKGELQNWPDLLPKLCSLLDSEDYNTCEGAFGALQKICEDSAEILDSDVLDRPLNIMIPKFLQFFKHSSPKIRSHAVACVNQFIISRTQALMLHIDSFIENLFALAGDEEPEVRKNVCRALVMLLEVRMDRLLPHMHNIVEYMLQRTQDQDENVALEACEFWLTLAEQPICKDVLVRHLPKLIPVLVNGMKYSDIDIILLKGDVEEDETIPDSEQDIRPRFHRSRTVAQQHDEDGIEEEDDDDDEIDDDDTISDWNLRKCSAAALDVLANVYRDELLPHILPLLKELLFHHEWVVKESGILVLGAIAEGCMQGMIPYLPELIPHLIQCLSDKKALVRSITCWTLSRYAHWVVSQPPDTYLKPLMTELLKRILDSNKRVQEAACSAFATLEEEACTELVPYLAYILDTLVFAFSKYQHKNLLILYDAIGTLADSVGHHLNKPEYIQMLMPPLIQKWNMLKDEDKDLFPLLECLSSVATALQSGFLPYCEPVYQRCVNLVQKTLAQAMLNNAQPDQYEAPDKDFMIVALDLLSGLAEGLGGNIEQLVARSNILTLMYQCMQDKMPEVRQSSFALLGDLTKACFQHVKPCIADFMPILGTNLNPEFISVCNNATWAIGEISIQMGIEMQPYIPMVLHQLVEIINRPNTPKTLLENTAITIGRLGYVCPQEVAPMLQQFIRPWCTSLRNIRDNEEKDSAFRGICTMISVNPSGVIQDFIFFCDAVASWINPKDDLRDMFCKILHGFKNQVGDENWRRFSDQFPLPLKERLAAFYGV
As for B4, the binding result in the assay with GTP-bound Ran (Q69L) is “binds”.

B5: maltose-binding protein (MBP)-PR18 (peptide)
chain: PRPRPRPRPRPRPRPRPRPRPRPRPRPRPRPRPRPR
Consider B5, for which the “stoichiometry N” value is 2 with Karyopherinβ2 (Kapβ2) [4]; 1 and ≥ 2 with Karyopherinβ2 (Kapβ2) [5].
